This is an account of results in paper PMC11253593.

One may read the stoichiometry N as a count of units in the complex or per binding partner.

Test [1] addresses DdrI (DR0997), CRP family protein from Deinococcus radiodurans, untagged (Deinococcus radiodurans). In words: SEC; gel filtration of the purified protein to check homogeneity and oligomeric state; also run with cAMP and Mn2+ added (dimer formation not affected). (SEC sorts molecules by how far they enter the pores of the column.)
The target in test [2] is eGFP-DdrI (DdrI with N-terminal fused eGFP) (Deinococcus radiodurans). The description is as above.

“DdrI (DR0997), CRP family protein from Deinococcus radiodurans, untagged (natural protein)” returned a stoichiometry N in test [1] of 2. In turn, “eGFP-DdrI (DdrI with N-terminal fused eGFP) (natural protein)” had a stoichiometry N in test [2] of 2.
